Assay results published in PMC2988878 (Nature structural & molecular biology, 2010).
Where no end group is shown, it is not given here.

T1: Mpa residues 1-96 (Mpa1-96) (Mycobacterium tuberculosis, UniProt P9WQN5 1-96)
T1 sequence: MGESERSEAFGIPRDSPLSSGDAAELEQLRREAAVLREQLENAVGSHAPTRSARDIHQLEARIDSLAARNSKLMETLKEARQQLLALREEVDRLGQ

B1: Mpa coiled-coil domain, residues 46-96 (Mpa46-96) (domain or fragment)
chain: SHAPTRSARDIHQLEARIDSLAARNSKLMETLKEARQQLLALREEVDRLGQ
B2: Full-length prokaryotic ubiquitin-like protein, Pup1-64-GGQ with a C-terminal non-cleavable His6-tag (natural protein)
chain: MAQEQTKRGGGGGDDDDIAGSTAAGQERREKLTEETDDLLDEIDDVLEENAEDFVRAYVQKGGQ

Experiments:
Test in all cases: […]
[1] = molecular target: B1
[2] = molecular target: B2
[3] = molecular target: T1, Mpa residues 1-96 (Mpa1-96)

Binder: {His6‑tag}-STAAGQERREKLTEETDDLLDEIDDVLEENAEDFVRAYVQKGGE (domain or fragment, not fully specified) [N-terminal truncated prokaryotic ubiquitin-like protein, Pup21-64-GGE with an N-terminal His6-tag]
- binding result [1]: binds

Binder: B1
- binding result [2]: binds

Binder: B2
- binding result [3]: binds
